The series deals with RPA-MeGFP (Saccharomyces cerevisiae) (UniProt P22336+P26754+P26755). As to the kind of experiment: single-molecule ssDNA curtains (TIRFM). As to conditions: 10 pM then 100 pM RPA; EMSA: 20 mM Tris-HCl pH 7.5, 150 (or 15) mM KCl, 1 mM DTT, 100 ug/mL BSA, 5 nM DNA, 30 C 10 min; curtains: 40 mM Tris-HCl pH 7.5, 150 or 15 mM NaCl, 2 mM …. In general terms: In EMSA bound probe runs differently from free probe, usually more slowly.
RPA-MeGFP (Saccharomyces cerevisiae), sequence (P22336 whole entry, chain 1 of 3): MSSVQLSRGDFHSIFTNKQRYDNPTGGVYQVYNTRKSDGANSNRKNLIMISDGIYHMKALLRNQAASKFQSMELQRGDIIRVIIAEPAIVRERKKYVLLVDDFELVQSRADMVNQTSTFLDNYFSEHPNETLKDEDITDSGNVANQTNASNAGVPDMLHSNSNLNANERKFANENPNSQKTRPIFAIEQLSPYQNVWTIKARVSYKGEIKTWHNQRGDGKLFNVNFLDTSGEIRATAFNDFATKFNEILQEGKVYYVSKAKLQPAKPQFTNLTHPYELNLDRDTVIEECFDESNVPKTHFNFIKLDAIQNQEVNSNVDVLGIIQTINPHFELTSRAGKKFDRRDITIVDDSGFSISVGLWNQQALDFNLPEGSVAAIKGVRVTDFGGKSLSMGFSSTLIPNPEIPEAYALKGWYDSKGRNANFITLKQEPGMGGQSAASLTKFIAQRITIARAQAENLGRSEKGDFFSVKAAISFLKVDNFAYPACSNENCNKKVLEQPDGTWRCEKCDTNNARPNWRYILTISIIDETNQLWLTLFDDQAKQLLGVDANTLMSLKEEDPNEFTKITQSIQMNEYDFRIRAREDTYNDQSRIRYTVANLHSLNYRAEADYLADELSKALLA
RPA-MeGFP (Saccharomyces cerevisiae), sequence (P26754 whole entry, chain 2 of 3): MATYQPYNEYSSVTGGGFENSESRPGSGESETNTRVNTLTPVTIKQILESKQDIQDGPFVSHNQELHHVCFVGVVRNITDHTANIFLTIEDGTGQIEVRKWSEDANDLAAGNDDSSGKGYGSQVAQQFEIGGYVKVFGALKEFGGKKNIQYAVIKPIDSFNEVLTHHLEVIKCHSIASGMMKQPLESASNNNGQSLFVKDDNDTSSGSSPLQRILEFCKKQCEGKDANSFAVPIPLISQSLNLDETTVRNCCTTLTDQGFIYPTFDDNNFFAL
RPA-MeGFP (Saccharomyces cerevisiae), sequence (P26755 whole entry, chain 3 of 3): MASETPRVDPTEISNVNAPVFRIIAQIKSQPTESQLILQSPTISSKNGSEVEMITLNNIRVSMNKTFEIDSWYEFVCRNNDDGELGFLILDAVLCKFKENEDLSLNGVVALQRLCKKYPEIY

Take M13 ssDNA: the binding signal (% length extension) is 359.
